For one molecule, Kd results are on record in patent publication EP3854411A1 (Rise Biopharmaceuticals, Inc. (Beijing), dated 2021).

By Kd is commonly meant a measure of binding affinity in units of concentration. A low value points to higher affinity.

For one assay, the target named is T1, CXCR2 (UniProt P25025 1-360, limits assumed).
T1 construct: The receptor preparation used in the ELISA is not described; also called IL-8R
T1 sequence (looked up): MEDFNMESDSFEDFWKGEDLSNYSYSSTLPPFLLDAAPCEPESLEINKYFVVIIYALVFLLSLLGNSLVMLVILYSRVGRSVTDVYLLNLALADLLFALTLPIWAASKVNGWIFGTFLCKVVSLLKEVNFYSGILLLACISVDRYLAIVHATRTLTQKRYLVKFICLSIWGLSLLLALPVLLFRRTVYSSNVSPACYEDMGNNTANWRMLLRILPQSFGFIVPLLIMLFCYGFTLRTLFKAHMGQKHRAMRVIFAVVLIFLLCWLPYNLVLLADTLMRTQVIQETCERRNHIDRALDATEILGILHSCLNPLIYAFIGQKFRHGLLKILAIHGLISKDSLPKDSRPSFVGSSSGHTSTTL
The experiment in a line: indirect ELISA, ONCO P8-CXCR2 complex formation. For orientation: An ELISA detects its analyte on a solid surface through an enzyme-linked reagent.

The next assay has as its target T2, CXCR1 (UniProt P25024 1-350, limits assumed).
T2 construct: The receptor preparation used in the ELISA is not described; also called IL-8R
T2 sequence (looked up): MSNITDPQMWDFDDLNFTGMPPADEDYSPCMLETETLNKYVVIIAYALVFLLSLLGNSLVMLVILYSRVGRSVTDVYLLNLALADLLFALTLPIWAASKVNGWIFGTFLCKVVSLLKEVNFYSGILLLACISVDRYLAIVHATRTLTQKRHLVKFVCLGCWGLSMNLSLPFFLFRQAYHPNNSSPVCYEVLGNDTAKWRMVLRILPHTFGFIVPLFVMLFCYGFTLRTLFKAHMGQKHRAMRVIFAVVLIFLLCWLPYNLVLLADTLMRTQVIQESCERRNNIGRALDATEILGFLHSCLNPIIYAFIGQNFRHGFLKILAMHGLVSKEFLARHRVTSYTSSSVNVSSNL
Briefly: indirect ELISA, ONCO P8-CXCR1 complex formation.

B1: ONCO P-8 (peptide)
chain: GSKELRCQCIRSYSKPFHPKFIKELRVIPASQFCANTEIIVKLSDGRELCLDPKENWVQRVVEKFLKRAENS
notes: also called chemokine receptor antagonistic modified peptide
As to B1, the dissociation constant Kd was determined as 139 nM with CXCR2 and 286 nM in the assay with CXCR1.
